According to US20240309087A1 (SHANGHAI JUNSHI BIOSCIENCES, published 2024):

Columns and labels:
[1] = molecular target: T1, recombinant cynomolgus monkey CD112R antigen (cynomolgus monkey, UniProt A0A2K5WVV8 1-322); experiment: ELISA, coated cynomolgus monkey CD112R
T1 construct: bought
T1 sequence: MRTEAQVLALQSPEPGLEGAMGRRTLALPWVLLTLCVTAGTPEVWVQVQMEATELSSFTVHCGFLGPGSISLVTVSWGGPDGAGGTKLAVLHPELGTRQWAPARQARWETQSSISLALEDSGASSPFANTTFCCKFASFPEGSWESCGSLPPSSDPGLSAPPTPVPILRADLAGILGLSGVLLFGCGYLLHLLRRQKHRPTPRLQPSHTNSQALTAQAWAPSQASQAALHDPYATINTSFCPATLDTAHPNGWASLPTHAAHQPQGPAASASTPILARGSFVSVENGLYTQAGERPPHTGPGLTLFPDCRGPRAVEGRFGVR
Protocol: (§1) Plates were coated with a recombinant cynomolgus monkey CD112R antigen (purchased from Acrobiosystems, Cat No. PVG-C5259) and a mouse CD112R antigen (purchased from Acrobiosystems, Cat No. PVG-M5257) at fixed concentrations, respectively, and the humanized anti-CD112R antibodies diluted in a gradient (initial concentration: 1 μg/mL, 2.5-fold gradient dilution, 12 concentration gradients in total) were added to bind to the antigens, HRP-conjugated mouse anti-human IgG4 Fc (Southern Biotech. 9200-05) was subjected to a 5000-fold dilution and used as detection antibody for detection. The color development was performed with 0.1 mg/mL TMB, and finally stopped with 2 M hydrochloric acid. The plates were read at 420 nm/620 nm. EC₅₀ was obtained by fitting with a four-parameter logistic regression (4PL) model.

[2] = molecular target: T2, hCD112R mFC recombinant protein (human; murine, UniProt Q6DKI7 41-160); experiment: ELISA, coated hCD112R-ECD-mFC
T2 construct: range 41-160; expressed in 293E cells; also called hCD112R ECD mFC; hCD112R-ECD-mFC; not shown: murine IgG2a Fc domain (MX2-mFc vector)
T2 sequence (looked up): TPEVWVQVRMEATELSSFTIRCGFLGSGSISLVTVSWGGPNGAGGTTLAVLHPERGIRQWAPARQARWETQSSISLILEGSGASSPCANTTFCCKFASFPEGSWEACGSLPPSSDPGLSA
Outline: (§2)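 Plates coated with hCD112R-ECD-mFC at 1.5 μg/mL; humanized antibodies titrated from 1 μg/mL, 2.5-fold, 12 points. Bound antibody detected with HRP anti-human IgG Fc and TMB, read at 420/620 nm; EC50 from 4PL fit, COM701 and anti-KLH hu-IgG4 as controls.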

[3] = molecular target: T2, hCD112R mFC recombinant protein; experiment: ELISA, coated hCD112R-ECD-mFC; EC50 COM701/EC50 antibody
Outline: as §2

[4] = molecular target: T3, human CD112R on Jurkat CD112R effector cells (human, UniProt Q6DKI7 1-326); experiment: cell-based or functional assay
T3 sequence (looked up): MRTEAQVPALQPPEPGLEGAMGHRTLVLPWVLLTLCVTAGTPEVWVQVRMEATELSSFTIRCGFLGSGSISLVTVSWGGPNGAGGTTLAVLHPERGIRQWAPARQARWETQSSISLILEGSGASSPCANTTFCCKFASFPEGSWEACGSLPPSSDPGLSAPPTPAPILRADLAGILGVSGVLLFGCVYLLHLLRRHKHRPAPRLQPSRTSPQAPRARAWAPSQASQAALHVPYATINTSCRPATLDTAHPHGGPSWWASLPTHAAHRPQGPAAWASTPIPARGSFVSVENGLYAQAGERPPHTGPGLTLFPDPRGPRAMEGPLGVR

[5] = molecular target: T2, hCD112R mFC recombinant protein; experiment: FACS competition, hCD112R mFc on CHO CD112 cells
Outline: (§3)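 CHO cells overexpressing human CD112 were co-incubated 30 min at 4 °C with hCD112R mFc (5 μg/mL) and humanized anti-CD112R antibodies (from 100 μg/mL, 3-fold, 10 points). Bound fusion protein detected with anti-mouse IgG Fc secondary by flow cytometry; IC50 from four-parameter fit of MFI. COM701 served as positive control, anti-KLH hu-IgG4 as negative.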

mouse CD112R antigen [6] = molecular target: T4, mouse CD112R antigen (mouse); experiment: ELISA on coated mouse CD112R, OD 450 nm, ambiguous fit of a nearly flat curve; unit from the axis
T4 construct: bought
Protocol: as §1, with “The plates were read at 420 nm/620 nm.” left out

[7] = molecular target: T2, hCD112R mFC recombinant protein; experiment: FACS competition, hCD112R mFc on CHO CD112 cells; IC50 COM701/IC50 antibody
Outline: as §3

[8] = molecular target: T1, recombinant cynomolgus monkey CD112R …; experiment: ELISA on coated recombinant cynomolgus monkey CD112R, OD 450 nm, 4PL fit; unit from the axis
[9] = molecular target: T1, recombinant cynomolgus monkey CD112R …; experiment: ELISA on coated recombinant cynomolgus monkey CD112R, OD 450 nm, ambiguous fit; unit from the axis
Protocol: A plate was coated with a recombinant cynomolgus monkey CD112R antigen (Acrobiosystems, Cat No. PVG-C5259) at a fixed concentration, and the chimeric anti-CD112R antibodies diluted in a gradient (initial concentration: 1 μg/mL, 2.5-fold gradient dilution, 12 concentration gradients in total) were added to bind to the antigen. Horseradish peroxidase (HRP)-conjugated mouse anti-human IgG4 Fc (Southern Biotech, 9200-05) was subjected to a 5000-fold dilution and used as a detection antibody for detection. The color development was performed with 0.1 mg/mL TMB, and finally stopped with 2 M hydrochloric acid. […] EC₅₀ was obtained by fitting with a four-parameter logistic regression (4PL) model.

[10] = molecular target: T5, human CD112R on CHO-CD112R cells (human, UniProt Q6DKI7 41-326); experiment: FACS on CHO-CD112R cells
T5 construct: whole, on cells; also called hCD112R; PVRIG
T5 sequence (looked up): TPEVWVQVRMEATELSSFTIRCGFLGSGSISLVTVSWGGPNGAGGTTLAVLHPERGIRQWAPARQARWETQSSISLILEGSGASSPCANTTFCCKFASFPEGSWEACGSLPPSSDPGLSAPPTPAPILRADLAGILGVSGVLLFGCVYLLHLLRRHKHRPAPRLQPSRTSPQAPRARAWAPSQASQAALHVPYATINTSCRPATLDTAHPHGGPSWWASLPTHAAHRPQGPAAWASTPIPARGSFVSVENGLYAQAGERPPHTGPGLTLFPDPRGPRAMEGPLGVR
Protocol: (§4) CHO-CD112R cells (constructed in-house by Junshi, the amino acid sequence of CD112R in the construction of stable cell lines overexpressing CD112R comprises amino acids at positions Met1-Arg326 under NCBI accession No. Q6DKI7) overexpressing human CD112R were incubated with each of the chimeric anti-CD112R antibodies at different concentrations (initial concentration: 50 μg/mL, 5-fold dilution, 12 concentration gradients in total) at 4° C. for 30 min, and then washed and incubated with a fluorescence-labeled secondary antibody at 4° C. for 30 min in the dark. Finally, the cells were collected by using a flow cytometer (BD Canto II), and the fluorescent antibodies bound to the cell surface were detected. Raw data were analyzed by using FlowJo to obtain MFI values, the antibody dose-dependent binding curves were fitted by using GraphPad (FIG. 3, a and b) and EC₅₀ was calculated (Table 3). The positive control and the negative control were Ref (anti-CD112R antibody, University of Colorado, obtained by expression and purification according to the sequences in US20170240613) and anti-KLH hu-IgG4 antibody, respectively.

[11] = molecular target: T5, human CD112R on CHO-CD112R cells; experiment: FACS on CHO-CD112R cells; EC50 Ref/EC50 antibody
Protocol: as §4

mouse CD112R antigen [12] = molecular target: T4, mouse CD112R antigen; experiment: ELISA on coated mouse CD112R, OD 450 nm, fit of a nearly flat curve; unit from the axis
Protocol: as §1, with “The plates were read at 420 nm/620 nm.” left out

Binder | EC50 [1] [µg/mL] | EC50 [2] [µg/mL] | Relative activity (%) [3] [%] | EC50, CD112R/CD112 reporter [4] [µg/mL] | Relative activity (%), EC50 COM701/EC50 antibody [4] [%] | IC50 [5] [µg/mL] | EC50 (mouse CD112R antigen [6]) [µg/mL] | Relative activity (%) [7] [%] | EC50 [8] [µg/mL] | EC50 [9] [µg/mL] | EC50 [10] [µg/mL] | Relative activity (%) [11] [%] | EC50 (mouse CD112R antigen [12]) [µg/mL]
Hu59 (antibody, human IgG4 S228P, kappa, humanized; 7C2VH2 + 7C2VL1) heavy: not shown light: DIQMTQSPSSLSASVGDRVTITCKASQSVSNDVAWYQQKPGKAPKLLIYYVSNRFTGVPSRFSGSGSGTDFTLTISSLQPEDFATYFCQQAYRSPWTFGQGTKLEIKRTVAAPSVFIFPPSDEQLKSGTASVVCLLNNFYPREAKVQWKVDNALQSGNSQESVTEQDSKDSTYSLSSTLTLSKADYEKHKVYACEVTHQGLSSPVTKSFNRGEC | 0.00262 | 0.00496 | 169 | 0.0188 | 312 | 3.17 | ~1970 | 76 | – | – | – | – | –
COM701 (antibody, V domains shown) VH: QVQLVQSGAEVKKPGASVKVSCKASGYTFTDYNINWVRQAPGQGLEWMGYIYPYIGGSGYAQKFQGRVTMTRDTSTSTVYMELSSLRSEDTAVYYCAREDKTARNAMDYWGQGTLVTVSS VL: DIQMTQSPSSLSASVGDRVTITCRVSENIYSNLAWYQQKPGKAPKLLIYEATNLAEGVPSRFSGSGSGTDFTLTISSLQPEDFATYYCQHFWGTPYTFGQGTKLEIK | – | – | – | – | – | – | ~1.06 | – | 0.00428 | – | – | – | –
Chi-18 (antibody, V domains shown, chimeric) VH: EVQLQQSGAELVKPGASVKISCKASGYTFTDYNMDWVKQSHGKSLEWIGDIHPKYDRTSYNQNFKGKATLTVDKSSRTAYMELRSLTSEDTAVYFCVRINDFDEGFAMDYWGQGTSVTVSS VL: QIVLTQSPAIMSVSPGEKVTMTCSATSSINYMHWYQQKSGTSPKRWIYDTSKLASGVPARFSGSGSGTSYSLTISNMEAEDAATYYCQQWTSNPLTFGAGTKLELK | – | – | – | – | – | – | – | – | – | ~27600 | 0.294 | 572 | –
Hu16 (antibody, human IgG4 S228P, kappa, humanized; 5C10VH1 + 6A10VL2) heavy: not shown light: DIVMTQSPDSLAVSLGERATINCKASQSVSNDVAWYQQKPGQPPKLLIYYVSHRFTGVPDRFSGSGSGTDFTLTISSLQAEDVAVYFCHQAYRSPWTFGQGTKLEIKRTVAAPSVFIFPPSDEQLKSGTASVVCLLNNFYPREAKVQWKVDNALQSGNSQESVTEQDSKDSTYSLSSTLTLSKADYEKHKVYACEVTHQGLSSPVTKSFNRGEC | 0.00292 | 0.00426 | 126 | 0.0196 | 253 | 2.5 | ~683 | 143 | – | – | – | – | –
Hu52 (antibody, human IgG4 S228P, kappa, humanized; 7C2VH1 + 6A10VL2) heavy: not shown light: DIVMTQSPDSLAVSLGERATINCKASQSVSNDVAWYQQKPGQPPKLLIYYVSHRFTGVPDRFSGSGSGTDFTLTISSLQAEDVAVYFCHQAYRSPWTFGQGTKLEIKRTVAAPSVFIFPPSDEQLKSGTASVVCLLNNFYPREAKVQWKVDNALQSGNSQESVTEQDSKDSTYSLSSTLTLSKADYEKHKVYACEVTHQGLSSPVTKSFNRGEC | 0.00309 | 0.00568 | 161 | 0.018 | 415 | 2.52 | – | 95.5 | – | – | – | – | 1870
